Results reported in US20060172958A1, “Phospholipid scramblase 3” (priority 2003, published 2006).

What was measured:
[1] = target: phospholipid scramblase 3 (PLS3), human, isoform not stated (human) (UniProt Q9NRY6); assay: co-immunoprecipitation with PLS3 antibody, estimated against a PKC-δ blot (not shown)
[2] = target: phospholipid scramblase 3 alpha (PLS3α) (human) (UniProt Q9NRY6); assay: cell-based or functional assay
Sequence of phospholipid scramblase 3 alpha (PLS3α) (human) (Q9NRY6 other isoform, or with tags, fused parts or gaps limits assumed): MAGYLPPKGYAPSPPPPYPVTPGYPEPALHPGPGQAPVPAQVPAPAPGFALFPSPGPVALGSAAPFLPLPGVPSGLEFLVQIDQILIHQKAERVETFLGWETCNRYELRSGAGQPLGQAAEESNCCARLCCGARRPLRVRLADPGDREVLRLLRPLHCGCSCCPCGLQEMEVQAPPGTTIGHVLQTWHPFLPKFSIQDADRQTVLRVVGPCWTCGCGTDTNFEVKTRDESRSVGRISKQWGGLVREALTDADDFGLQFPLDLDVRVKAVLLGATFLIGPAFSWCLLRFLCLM

Sequence of phospholipid scramblase 3 (PLS3), human, isoform not stated (human) (Q9NRY6 whole entry, canonical isoform): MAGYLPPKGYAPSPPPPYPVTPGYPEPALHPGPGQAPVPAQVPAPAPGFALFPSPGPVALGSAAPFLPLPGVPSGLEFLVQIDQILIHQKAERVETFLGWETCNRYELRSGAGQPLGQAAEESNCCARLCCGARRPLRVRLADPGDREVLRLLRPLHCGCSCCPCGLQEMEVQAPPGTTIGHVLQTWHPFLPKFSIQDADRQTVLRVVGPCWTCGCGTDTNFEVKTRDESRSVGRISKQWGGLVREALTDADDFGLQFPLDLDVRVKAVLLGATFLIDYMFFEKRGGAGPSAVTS

| percent of total cellular PKC-δ co-immunoprecipitated with PLS3 [1] [%] | percentage of cardiolipin at the outer membrane (shoulder of the NAO curve) [2] [%] | proportion of sub-G1 cells, or the apoptotic population (propidium iodide) [2] [%] | Substance |
| --- | --- | --- | --- |
| 5 to 10 |  |  | PKC-δ (cellular, HEK293 cells) (from UniProt Q05655 1-676) (enzyme) |
|  | 50 | 15.4 | Bcl-B (untagged, from pcDNA-Bcl-B or pBcl-B-IRES-EGFP) (from UniProt Q9HD36 1-204) |
